Results on 17 sequences are retold here after the DeepSol protein solubility set.

This data set is described as follows: soluble on expression in E. coli; label from the status in PepcDB or PDB records.
With “MMIDDSKVSFVIPTINEEGTIGSVIDGIRSEFPNSEIIVVDTNSTDRTREIARSKGARVIEEPRRGYGRAYQTGIPAASGEIIVCMDGDGTYPTDVVKPLIELLIADRVDFISCDRITFRTSKNYTTLHYVGNMVLNLTIRILFKVRMVDSQSGMWVFRSEIYRKMKNLGNGMSFSQNIKIEAVRHGVFMEIPIRYGVRITKPKLKTWHDGFHNLFALFVKRVSE”, the “soluble on expression in E. coli” value is given as “not soluble”.
Consider “MDNNLEIKDLEKIAKKVRYNIVKMVGLAKSGHPGGSLSATDIIVALYFKLMNYSPDNPYKKDRDRFVLSKGHAAPALYAVLSELGIIEEEELWKLRRLEGKLQGHPSMDTPGVEICTGSLGQGFSAAVGMALGCRLDKLNNYVYVLLGDGECQEGIVWEAAMAAAHYKLDNLIAFIDRNKLQIDGCTEDVMSLGDIKAKFEAFGWDVFEIDGHNFEEIINTVEKAKSMKNGKPKMIIAYTVKGKGVSFMENNVAFHGKAPNEEQLKQALEELSE”, for which the “soluble on expression in E. coli” value is “soluble”.
As for “MGSDKIHHHHHHMKKIRLGIYIEDSEYGDRLTCYFMNHYKVQLEIHMYTMKEQLEHLEGEIDIMLSSELDQWNNKYIPLIQIVEETPIESEEGIYFVEKYQEVNRIVEEILKHVGGEVRDLKSEGSLIGQTRLISVYSLADNQYQMPFAMTLSSILSENEKVLLMDFQENSGLSRMLEQSVEHNLDELLVMAESGRYSTNRINSCIGRKHKLDYVYPIENTECLCEINTVICNNLLQMLGKEMHYDCIVLNMGTRFKGFFDILDRCSDIYLVQKKGGISQWREYEFTEELMERGLSNVVERIKLIEPPVITTPVSTCDKLVELWKWNEFGDVIRNMTRGISCAG”, the “soluble on expression in E. coli” value is given as “not soluble”.
Consider “MKPTNKAQDDDAVFALSTEVNHKLDLHQSSAEALRLAGVYTRQSCVLDLYHGYRSDDEDTEPDEEDGRLQTVREYHENGMLKLMRTFVRRLRRDATDPTAESSYYDRVVEEKHYDPSGICRVDMHFALGQPYLYRKHYYPNNRLKSEKVFFVEDEETMRARKVGHWRTYYENGNIQSEIIYNKDGVRCGFCKRYAIDGAIEWVKDYTREQEERLQAFNAKRGNLDLTVTDAARVLGLEGDWCSHVVNRTFRSKCAPLHPDWRRTAGDKAGETWEEEQRTEAFIRLSRAREVLLKFLETHPRECSCERGGA”, for which the “soluble on expression in E. coli” value is listed as “not soluble”.
Under “MSLEEQLYKRDPVSGAILVPMTVNDQPIEKNGDKMPLKFKLGPLSYQNMAFITAKDKYKLYPVRIPRLDTSKEFSAYVSGLFEIYRDLGDDRVFNVPTIGVVNSNFAKEHNATVNLAMEAILNELEVFIGRVKDQDGRVNRFYELEESLTVLNCLRTMYFILDGQDVEENRSEFIESLLNWINRSDGEPDEEYIEQVFSVKDSTAGKKVFETQYFWKLLNQLVLRGLLSQAIGCIERSDLLPYLSDTCAVSFDAVSDSIELLKQYPKDSSSTFREWKNLVLKLSQAFGSSATDISGELRDYIEDFLLVIGGNQRKILQYSRTWYESFCGFLLYYIPSLELSAEYLQMSLEANVVDITNDWEQPCVDIISGKIHSILPVMESLDSCTAAFTAMICEAKGLIENIFEGEKNSDDYSNEDNEMLEDLFSYRNGMASYMLNSFAFELCSLGDKELWPVAIGLIALSATGTRSAKKMVIAELLPHYPFVTNDDIEWMLSICVEWRLPEIAKEIYTTLGNQMLSAHNIIESIANFSRAGKYELVKSYSWLLFEASCMEGQKLDDPVLNAIVSKNSPAEDDVIIPQDILDCVVTNSMRQTLAPYAVLSQFYELRDREDWGQALRLLLLLIEFPYLPKHYLVLLVAKFLYPIFLLDDKKLMDEDSVATVIEVIETKWDDADEKSSNLYETIIEADKSEGHHHHHH” stands “not soluble”.
In the case of “MGSDKIHHHHHHMAQTVSIIVSPEDQVRLAEVIGDRNSPQKHVQRARIVLHSAEHRPVLEVARDIGISRPAVWRWQLRYAEQGVDGLLRDKTRKPGKPPLPLGTVARVLALPCSNPPGSVTHWTGRAVAKAVGISLRAVQRIWDAHHLQPHRLRTFKKSKDPAFTEKVEDVVGLYMEPPCHAVVLSIDEKSQIQALDRTQPGLPLKPGKCATMTHDYKRNGTTTLFAALNILDGTVLGRCMQKHRHQEFIKFLNAVERAVPAGKIIHAILDNYGTHKHPKVRQWLADHPRWVFHFTPTL” it was “not soluble”; in that of “GGSCFKCGKKGHFAKNCHEHAHNNAEPKVPGLCPRCKRGKHWANECKSKTDNQGNPIPPH”, “soluble”.
Take “MPFWGAGIKILHISEDFRTVKVRLKLRWWNKNANRTQYGGSIFSLTDPIYSLMLMGILREEYYVWDKEASINFIKPGQSDLFAEFEITDGMLDEIYQMTRNGEKCFPEFITHVKDKQGNVVSEVQRKLYVRKLEHHHHHH”: the “soluble on expression in E. coli” value is given as “not soluble”.
With “DNARTNPLKDLEFFLHSFRGLLEKAPVVVGITKMDIRSQPGIDVYHKYLAKHNLNVPVFEIDARKEDDVKQLVSAMLFSIDPGLEV”, the “soluble on expression in E. coli” value was “not soluble”.
Under “MIGSGSQRKIGIVIKALLDQAEELDIINKNKIRCTDIPRQGKAERRYLTIRGIDRLLAAAIPMNEVALMRNVLLFTGLRPREAKGLKVKDLDPMRGRLSIRRDVDDLGNPDETKTRNHRGVPIGGDLLFDLDDQAEGKQPHDWLLTDETGHV” stands “not soluble”; under “MGGGERYNIPAPQSRNVSKNQQQLNRQKTKEQNSQMKIVHKKKERGHGYNSSAAAWQAMQNGGKNKNFPNNQSWNSSLSGPRLLFKSQANQNYAGAKFSEPPSPSVLPKPPSHWVPVSFNPSDKEIMTFQLKTLLKVQV”, “not soluble”; under “MSEHETAGEGRFNSIEIRVLGSLIEKQATSPESYPLTLNALVLACNQKTSREPVMNLTQGQVGQALRALEGQGMTRLQMGSRADRWEHRVDKALELVPAQLVLMGLMFLRGPQTLNELLTRSNRLHDFDDTEQIQHQLERLISRDLALHLPRQAGQREDRYTHALGDPAEIEAILAARQQEGGARTSGGSVSEDRIEALEARIAALEARLAELEG”, “not soluble”.
Under “GMSQRIGVIDMGTNTFHLLITDIVNDRPHTLVNEKSAVGLGKGGITKGFITEEAMDRALDTLKKFRVILDEHAVVHVIATGTSAVRSGSNKQVLIDRIKKEVNIDVEVIDGAREAELIFRGVQQAVPMEDHISLAMDIGGGSVEFIIGNKNEILWKQSFEIGGQRLIDRFHVHDPMREDDRVMMHNYFDEVLVPLEKAINTWRPTQLIGCSGTFDTLAEMNIQHHREKIALEKQTSYLLSLPDFNRLRKQLVASTRRERLAIAGMIELRADMVVVAICLIEHVLKLVSTNAITVSTYSLKEGVLYTMLDGVKVGS” stands “soluble”; under “MGSDKIHHHHHHMCRWLAYTGNPLQLETVLFNARHSLIDQSLHSRLGYTTTNGDGFGIGWYGEPTDIPFRYRCIQPAWSDRNLREAARAIRAPLFVAHVRSATDTPSQETNCHPFRHGRWLFAHNGLIRNYPAVRRDLMVMIDPDLFPSIEGSTDSEVMFFLALTFGLELAPVTALERMVAFVEETGRKHGVDEPLNMTVCVTDGEQIVAVRYSSEGQSRSLFHSTSFHHLHELYPDDPRIAAAGENAFLVLSEPLADLPGWWEEIPESTVVVARGGQIEQYPFRPQSA”, “not soluble”; under “MQLQKLVNMFGGDLTRRYGQKVHKLTLHGGFSCPNRDGTIGRGGCTFCNVASFADEAHEHRSIAEQLAHQANLVNRAKRYLAYFQAYTSTFAEVQVLRSMYQQAVSQANIVGLCVGTRPDCVPDAVLDLLCEYKDQGYEVWLELGLQTAHDKTLHRINRGHDFACYQRTTQLARQRGLKVCSHLIVGLPGEGQAECLQTLERVVETGVDGIKLHPLHIVKGSIMAKAWEAGRLNGIELEDYTLTAGEMIRHTPPEVIYHRISASARRPTLLAPLWCENRWTGMVELDRYLNEHGVQGSALGRPWLPPTELEHHHHHH”, “not soluble”.
Under “MGSDKIHHHHHHMITKEDIVADVVTDYPKSADIFRNAGIDFCCGGQESIASAVNHKPNIDLNSLLNKLNHIDNTEGNSTINPKFLNVESLIQYIQSAYHETLKEEFKNLTPYMTKLAKVHGPSHPYLLKLQDLYREFRDSMLDHIRKEDEEDFPKLIQYSQGQDVQNIKIILEDLINDHEDTGQLLNVMNQLTSDYQTPEEACGTWKLVYQRLQNIERQTHQHVHLENHVLFKKVS” stands “not soluble”.
On to “MNDHLKRGNLLWEGSRMFLPEHKQSLLERKRLKQKLQKPILDPDKLEEMNQTLCAAMEFAQDITVSCFQDGEIVCCTGKICRYEEFEKAVWIKGDEDQLYKLKLDQVLDI”, for which the “soluble on expression in E. coli” value is on record as “not soluble”.
